# Laboratory results: the supplement of paper PMC9112550, “Optimization of the antimicrobial peptide Bac7 by deep mutational scanning” (BMC Biology, 2022)
# Test system: Escherichia coli TOP10
# Experiment: shrunken log2 fold change of peptide-encoding DNA abundance (4.5 h post-induction vs induction); higher = less antimicrobial activity (less host growth inhibition)
# Details: time post-induction: 4.5 h; library: site-saturation at positions 5, 18, 19, 20
# 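Note: peptides expressed intracellularly from a pBAD plasmid library in pooled LB shake-flask culture, induced with 0.3% L-arabinose, DNA abundance read by NGS, three biological replicates, DESeq2 with apeglm shrinkage.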
row,Sequence,shrunken log2 fold change
1,RRIRCRPPRLPRPRPRPSNGPRP,-0.113
2,RRIRTRPPRLPRPRPRPNIIPRP,-1.01
3,RRIRHRPPRLPRPRPRPELQPRP,0.07
4,RRIRHRPPRLPRPRPRPFFQPRP,-0.202
5,RRIRIRPPRLPRPRPRPNQAPRP,-0.0486
6,RRIRYRPPRLPRPRPRPCWFPRP,-0.0378
7,RRIRERPPRLPRPRPRPWARPRP,-0.0915
8,RRIRWRPPRLPRPRPRPAFCPRP,0.143
9,RRIRCRPPRLPRPRPRPVNNPRP,-0.327
10,RRIRSRPPRLPRPRPRPQWVPRP,0.0964
11,RRIRGRPPRLPRPRPRPKVLPRP,0.177
12,RRIRTRPPRLPRPRPRPLEWPRP,0.178
13,RRIRNRPPRLPRPRPRPKNRPRP,0.0314
14,RRIRPRPPRLPRPRPRPQPDPRP,-0.0815
15,RRIRNRPPRLPRPRPRPNGLPRP,0.00468
16,RRIRERPPRLPRPRPRPTNDPRP,0.127
17,RRIRRRPPRLPRPRPRPDMTPRP,0.0544
18,RRIRPRPPRLPRPRPRPPSSPRP,-0.207
19,RRIRPRPPRLPRPRPRPTINPRP,-0.51
20,RRIRWRPPRLPRPRPRPEKGPRP,0.0282
21,RRIRQRPPRLPRPRPRPHPEPRP,0.0615
22,RRIRQRPPRLPRPRPRPMIHPRP,-0.471
23,RRIRGRPPRLPRPRPRPDYNPRP,-0.12
24,RRIRYRPPRLPRPRPRPPAGPRP,0.322
25,RRIRFRPPRLPRPRPRPIDHPRP,-0.0746

row,Sequence,shrunken log2 fold change
1,RRIRARPPRLPRPRPRPQKNPRP,0.0395
2,RRIRYRPPRLPRPRPRPHFSPRP,-0.256
3,RRIRERPPRLPRPRPRPACFPRP,0.00624
4,RRIRVRPPRLPRPRPRPERFPRP,-0.023
5,RRIRYRPPRLPRPRPRPSCHPRP,-0.0195
6,RRIRPRPPRLPRPRPRPKIQPRP,0.0394
7,RRIRVRPPRLPRPRPRPFPYPRP,-0.277
8,RRIRLRPPRLPRPRPRPPWFPRP,0.165
9,RRIRARPPRLPRPRPRPSHMPRP,-0.184
10,RRIRGRPPRLPRPRPRPCRTPRP,0.225
11,RRIRIRPPRLPRPRPRPMHKPRP,-0.431
12,RRIRSRPPRLPRPRPRPVGDPRP,0.0704
13,RRIRMRPPRLPRPRPRPPWHPRP,0.438
14,RRIRFRPPRLPRPRPRPYGDPRP,-0.0819
15,RRIRHRPPRLPRPRPRPEDYPRP,0.0112
16,RRIRMRPPRLPRPRPRPTHHPRP,0.316
17,RRIRLRPPRLPRPRPRPVWTPRP,0.00633
18,RRIRQRPPRLPRPRPRPTFHPRP,0.199
19,RRIRLRPPRLPRPRPRPRSSPRP,-0.277
20,RRIRNRPPRLPRPRPRPICRPRP,-0.0024
21,RRIRYRPPRLPRPRPRPGCHPRP,-0.711
22,RRIRRRPPRLPRPRPRPKVLPRP,0.378
23,RRIRYRPPRLPRPRPRPGWGPRP,-0.13
24,RRIRVRPPRLPRPRPRPAGQPRP,0.375
25,RRIRTRPPRLPRPRPRPTCMPRP,-0.262

row,Sequence,shrunken log2 fold change
1,RRIRKRPPRLPRPRPRPFMQPRP,-0.0285
2,RRIRLRPPRLPRPRPRPHGQPRP,0.0101
3,RRIRDRPPRLPRPRPRPFHFPRP,-0.208
4,RRIRYRPPRLPRPRPRPCLQPRP,-0.00663
5,RRIRSRPPRLPRPRPRPQFDPRP,-0.00423
6,RRIRHRPPRLPRPRPRPYHMPRP,-0.0151
7,RRIRVRPPRLPRPRPRPFKMPRP,-0.398
8,RRIRHRPPRLPRPRPRPKKCPRP,-0.225
9,RRIRSRPPRLPRPRPRPAWHPRP,0.0201
10,RRIRVRPPRLPRPRPRPCGVPRP,-0.0743
11,RRIRTRPPRLPRPRPRPVDAPRP,0.188
12,RRIRERPPRLPRPRPRPMWHPRP,0.0749
13,RRIRWRPPRLPRPRPRPVTAPRP,0.138
14,RRIRLRPPRLPRPRPRPEYWPRP,-0.0516
15,RRIRGRPPRLPRPRPRPVPRPRP,0.806
16,RRIRSRPPRLPRPRPRPWMYPRP,-0.0974
17,RRIRLRPPRLPRPRPRPRYWPRP,-0.0087
18,RRIRFRPPRLPRPRPRPRSLPRP,0.0152
19,RRIRDRPPRLPRPRPRPGHAPRP,0.648
20,RRIRWRPPRLPRPRPRPPYRPRP,3.11
21,RRIRGRPPRLPRPRPRPERKPRP,0.92
22,RRIRYRPPRLPRPRPRPYREPRP,0.0196
23,RRIRHRPPRLPRPRPRPPAKPRP,0.539
24,RRIRFRPPRLPRPRPRPEMIPRP,0.169
25,RRIRFRPPRLPRPRPRPEYWPRP,-0.245
